# Results from PMC4835091, “Characterization of the FtsZ C-Terminal Variable (CTV) Region in Z-Ring Assembly and Interaction with the Z-Ring Stabilizer ZapD in E. coli Cytokinesis” (PLoS ONE, 2016).
# Where a chain is given by its changes, count along the chain named. Names may count otherwise.
# T1: GAL4 BD-ZapD fusion (E. coli, UniProt P36680 1-247)
# T1 construct: ZapD, Z-ring stabilizer of E. coli; also called pDEST-GBKT7-zapD; source: yeast two-hybrid fusion (pDEST-GBKT7-zapD in S. cerevisiae PJ69-4A, diploid after mating)
# T1 sequence (looked up): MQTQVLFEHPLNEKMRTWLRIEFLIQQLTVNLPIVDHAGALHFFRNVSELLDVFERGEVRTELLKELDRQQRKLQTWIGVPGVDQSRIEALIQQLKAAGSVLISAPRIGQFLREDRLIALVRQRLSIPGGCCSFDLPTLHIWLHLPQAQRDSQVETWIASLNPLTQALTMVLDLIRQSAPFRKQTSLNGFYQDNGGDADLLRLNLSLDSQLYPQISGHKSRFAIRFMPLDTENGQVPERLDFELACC
# B1: FtsZ(DQAK) (purified) (natural protein, E. coli, UniProt P0A9A6 1-383, looked up)
# chain: MFEPMELTNDAVIKVIGVGGGGGNAVEHMVRERIEGVEFFAVNTDAQALRKTAVGQTIQIGSGITKGLGAGANPEVGRNAADEDRDALRAALEGADMVFIAAGMGGGTGTGAAPVVAEVAKDLGILTVAVVTKPFNFEGKKRMAFAEQGITELSKHVDSLITIPNDKLLKVLGRGISLLDAFGAANDVLKGAVQGIAELITRPGLMNVDFADVRTVMSEMGYAMMGSGVASGEDRAEEAAEMAISSPLLEDIDLSGARGVLVNITAGFDLRLDEFETVGNTIRAFASDNATVVIGTSLDPDMNDELRVTVVATGIGMDKRPEITLVTNKQVQQPVMDRYQQHGMAPLTQEQKPVAKVVNDNAPQTAKEPDYLDIPAFLRDQAK
# notes: FtsZ of E. coli with the native CTV KQAD replaced by DQAK (net-neutral); pKHH9, pET-21b(+); also called net-neutral CTV mutant; source: E. coli C41(DE3), purified (25% saturated ammonium sulfate cut)
# B2: FtsZ(QQQQ) (purified) (natural protein, E. coli, UniProt P0A9A6 1-383, looked up)
# chain: B1 chain with D380Q, A382Q, K383Q
# notes: FtsZ of E. coli with the native CTV KQAD replaced by QQQQ (net-neutral); pLT1, pET-21b(+); also called net-neutral CTV mutant; source: E. coli C41(DE3), purified (25% saturated ammonium sulfate cut)
# B3: FtsZ(DQAD) (purified) (natural protein, E. coli, UniProt P0A9A6 1-383, looked up)
# chain: B1 chain with K383D
# notes: FtsZ of E. coli with the CTV DQAD (net-negative) in place of KQAD; pKHH7, pET-21b(+); also called K380D; net-negative CTV mutant; source: E. coli C41(DE3), purified (20% ammonium sulfate cut)
# B4: FtsZ(RQAR) (purified) (natural protein, E. coli, UniProt P0A9A6 1-383, looked up)
# chain: B1 chain with D380R, K383R
# notes: FtsZ of E. coli with the native CTV KQAD replaced by RQAR (net-positive); pAM3, pET-21b(+); also called net-positive CTV mutant; source: E. coli C41(DE3), purified (25% saturated ammonium sulfate cut)
# B5: FtsZ(KQAK) (purified) (natural protein, E. coli, UniProt P0A9A6 1-383, looked up)
# chain: B1 chain with D380K
# notes: FtsZ of E. coli with the native CTV KQAD replaced by KQAK (net-positive); pKHH8, pET-21b(+); also called net-positive CTV mutant; source: E. coli C41(DE3), purified (25% saturated ammonium sulfate cut)
# B6: FtsZ(1-379) (purified) (domain or fragment, E. coli, UniProt P0A9A6 1-379, looked up)
# chain: MFEPMELTNDAVIKVIGVGGGGGNAVEHMVRERIEGVEFFAVNTDAQALRKTAVGQTIQIGSGITKGLGAGANPEVGRNAADEDRDALRAALEGADMVFIAAGMGGGTGTGAAPVVAEVAKDLGILTVAVVTKPFNFEGKKRMAFAEQGITELSKHVDSLITIPNDKLLKVLGRGISLLDAFGAANDVLKGAVQGIAELITRPGLMNVDFADVRTVMSEMGYAMMGSGVASGEDRAEEAAEMAISSPLLEDIDLSGARGVLVNITAGFDLRLDEFETVGNTIRAFASDNATVVIGTSLDPDMNDELRVTVVATGIGMDKRPEITLVTNKQVQQPVMDRYQQHGMAPLTQEQKPVAKVVNDNAPQTAKEPDYLDIPAFLR
# notes: also called FtsZ lacking the CTV residues; FtsZ without the CTV region; source: E. coli C41(DE3), purified (25% saturated ammonium sulfate cut)
# B7: FtsZ(NRNKRG) (purified) (natural protein, E. coli | B. subtilis)
# chain: MFEPMELTNDAVIKVIGVGGGGGNAVEHMVRERIEGVEFFAVNTDAQALRKTAVGQTIQIGSGITKGLGAGANPEVGRNAADEDRDALRAALEGADMVFIAAGMGGGTGTGAAPVVAEVAKDLGILTVAVVTKPFNFEGKKRMAFAEQGITELSKHVDSLITIPNDKLLKVLGRGISLLDAFGAANDVLKGAVQGIAELITRPGLMNVDFADVRTVMSEMGYAMMGSGVASGEDRAEEAAEMAISSPLLEDIDLSGARGVLVNITAGFDLRLDEFETVGNTIRAFASDNATVVIGTSLDPDMNDELRVTVVATGIGMDKRPEITLVTNKQVQQPVMDRYQQHGMAPLTQEQKPVAKVVNDNAPQTAKEPDYLDIPAFLRNRNKRG
# notes: FtsZ of E. coli up to the CTV; the native CTV KQAD (380-383) is replaced by the next part; also called EcftsZCTVB; source: E. coli C41(DE3), purified (25% saturated ammonium sulfate cut)
# B8: GAL4 AD-FtsZ(QQQQ) fusion (natural protein, E. coli, UniProt P0A9A6 1-383, looked up)
# chain: B1 chain with D380Q, A382Q, K383Q
# notes: FtsZ of E. coli with the native CTV KQAD replaced by QQQQ (net-neutral); source: yeast two-hybrid fusion (pDEST-GADT7-ftsZ(QQQQ) in S. cerevisiae SL3004, diploid after mating)
# B9: GAL4 AD-FtsZ(RQAR) fusion (natural protein, E. coli, UniProt P0A9A6 1-383, looked up)
# chain: B1 chain with D380R, K383R
# notes: FtsZ of E. coli with the native CTV KQAD replaced by RQAR (net-positive); source: yeast two-hybrid fusion (pDEST-GADT7-ftsZ(RQAR) in S. cerevisiae SL3004, diploid after mating)
# B10: GAL4 AD-FtsZ(DQAK) fusion (natural protein, E. coli, UniProt P0A9A6 1-383, looked up)
# chain: B1 chain
# notes: FtsZ of E. coli with the native CTV KQAD replaced by DQAK (net-neutral); source: yeast two-hybrid fusion (pDEST-GADT7-ftsZ(DQAK) in S. cerevisiae SL3004, diploid after mating)
# B11: GAL4 AD-FtsZ(NRNKRG) fusion (natural protein, E. coli | B. subtilis)
# chain: B7 chain
# notes: FtsZ of E. coli up to the CTV; the native CTV KQAD (380-383) is replaced by the next part; also called E. coli FtsZ with the B. subtilis CTV; source: yeast two-hybrid fusion (pDEST-GADT7-ftsZ(NRNKRG) in S. cerevisiae SL3004, diploid after mating)
# Biological target: the molecule itself
# Experiment: sedimentation of FtsZ polymers; FtsZ or CTV mutant 5 μM alone in 50 mM K-MOPS pH 6.5, 50 mM KCl, 2.5 mM MgCl2, 3 μM BSA, 1 mM GTP, room temperature; TLA100.2, 80,000 rpm, 10 min; percent of FtsZ in the pellet by SDS-PAGE
# Details: not given
row,Binder,binding result
1,B1,binds
2,B2,binds
3,B3,binds
4,B4,binds
5,B5,binds
6,B6,binds
7,B7,binds

# Biological target: T1, GAL4 BD-ZapD fusion
# Experiment: two-hybrid; GAL4 BD-ZapD with GAL4 AD-FtsZ fusions in diploid yeast grown in YNB (-Leu-Trp) at 30°C; beta-galactosidase activity in Miller units, mean of 10 independent trials
# Details: partners not purified
row,β-galactosidase activity,Binder
1,115 Miller units,B8
2,155 Miller units,B9
3,170 Miller units,B10
4,106 Miller units,B11
